Source: US20260226192

System: Engineered trastuzumab antibody design 18 [anti-Her2 ScFv-FC]
Sequence (chain, as listed by the source, change not shown): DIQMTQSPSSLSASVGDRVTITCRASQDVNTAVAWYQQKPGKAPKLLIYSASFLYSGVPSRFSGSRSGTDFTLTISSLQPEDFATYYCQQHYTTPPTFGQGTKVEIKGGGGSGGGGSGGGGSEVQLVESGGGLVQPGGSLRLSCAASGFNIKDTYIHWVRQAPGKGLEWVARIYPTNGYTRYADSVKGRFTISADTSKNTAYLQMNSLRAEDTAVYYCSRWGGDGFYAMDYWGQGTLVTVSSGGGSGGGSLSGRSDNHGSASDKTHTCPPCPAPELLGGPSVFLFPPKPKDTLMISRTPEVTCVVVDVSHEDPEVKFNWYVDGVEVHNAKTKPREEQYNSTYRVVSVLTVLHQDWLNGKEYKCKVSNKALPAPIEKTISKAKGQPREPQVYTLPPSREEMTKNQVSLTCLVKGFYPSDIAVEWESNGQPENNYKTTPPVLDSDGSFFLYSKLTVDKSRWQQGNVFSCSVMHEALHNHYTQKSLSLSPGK

In the case of uPA protease, the “protease digestion with uPA (1:1 molar), SDS-PAGE” value is reported as “uPA cleaved the antibody variants and generated F(ab) fragments in a similar manner as it did for the other designs”.
